Measured values reported in US20240425587A1 (Alector, published 2024).

What was measured:
[1] = biological target: T1, murine PILRA, ectopically expressed on 293 cells (murine, UniProt Q2YFS3 32-302); experiment: flow cytometry, 293 cells expressing target
T1 construct: also called mA
Method: (§1) Briefly, conditioned media containing antibodies were incubated with 293 cells for 30 min at 4° C., washed twice, and then detected with anti-mouse IgG Alexa 647.

[2] = biological target: cynomolgus PILRA, ectopically expressed on 293 cells (cynomolgus monkey); experiment: flow cytometry, 293 cells expressing target
Sequence of cynomolgus PILRA, ectopically expressed on 293 cells (cynomolgus monkey) (chain, as listed by the source): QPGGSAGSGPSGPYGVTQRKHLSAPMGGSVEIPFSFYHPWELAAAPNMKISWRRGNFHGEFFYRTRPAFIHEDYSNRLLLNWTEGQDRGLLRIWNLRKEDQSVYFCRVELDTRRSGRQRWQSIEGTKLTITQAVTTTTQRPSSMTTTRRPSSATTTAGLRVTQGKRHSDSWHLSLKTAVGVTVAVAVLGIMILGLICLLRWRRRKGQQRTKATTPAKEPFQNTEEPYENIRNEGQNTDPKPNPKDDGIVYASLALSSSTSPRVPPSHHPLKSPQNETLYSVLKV
Method: as §1

[3] = biological target: T2, human PILRB, ectopically expressed on 293 cells (human, UniProt Q9UKJ0 20-227); experiment: flow cytometry, 293 cells expressing target
T2 construct: also called hB
T2 sequence (Q9UKJ0 20-227): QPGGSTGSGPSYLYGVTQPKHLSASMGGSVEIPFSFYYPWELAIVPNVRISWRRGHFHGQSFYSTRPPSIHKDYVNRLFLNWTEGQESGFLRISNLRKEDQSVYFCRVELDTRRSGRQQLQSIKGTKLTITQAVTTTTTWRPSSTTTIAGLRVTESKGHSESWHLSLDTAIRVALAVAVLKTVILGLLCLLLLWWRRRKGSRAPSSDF
Method: as §1

[4] = biological target: T3, murine PILRB, ectopically expressed on 293 cells (murine, UniProt Q2YFS2 29-224); experiment: flow cytometry, 293 cells expressing target
T3 construct: whole, on cells; also called mB
T3 sequence (Q2YFS2 29-224): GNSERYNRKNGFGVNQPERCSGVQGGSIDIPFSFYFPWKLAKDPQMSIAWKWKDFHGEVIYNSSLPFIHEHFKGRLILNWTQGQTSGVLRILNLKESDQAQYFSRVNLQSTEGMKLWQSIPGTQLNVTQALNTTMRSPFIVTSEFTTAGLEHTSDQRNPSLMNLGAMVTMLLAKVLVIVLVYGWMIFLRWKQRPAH
Method: as §1

[5] = biological target: T4, human PILRA, G78 variant, ectopically expressed on 293 cells (human, UniProt Q9UKJ1 20-303); experiment: flow cytometry, 293 cells expressing target
T4 construct: the cells are labelled G78; also called hA G78 OE; hA
T4 sequence (Q9UKJ1 other isoform, or with tags, fused parts or gaps mutant): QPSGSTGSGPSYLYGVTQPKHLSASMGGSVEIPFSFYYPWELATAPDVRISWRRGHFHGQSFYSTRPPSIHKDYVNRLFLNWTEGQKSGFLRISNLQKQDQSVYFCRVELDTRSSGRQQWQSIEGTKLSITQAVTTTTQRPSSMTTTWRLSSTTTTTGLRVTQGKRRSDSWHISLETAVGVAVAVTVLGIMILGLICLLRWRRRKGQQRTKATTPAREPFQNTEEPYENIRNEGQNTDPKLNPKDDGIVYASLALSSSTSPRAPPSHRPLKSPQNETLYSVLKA
Method: as §1

[6] = biological target: T5, PILRA Fc (soluble human PILRA) (human, UniProt Q9UKJ1 20-197, limits assumed); experiment: flow cytometry; blocking of PILRA Fc binding to human CD3+ T cells (Donor 1019)
T5 construct: also called soluble PILRA; not shown: Fc part, detected with anti-human IgG
T5 sequence (Q9UKJ1 20-197 limits assumed): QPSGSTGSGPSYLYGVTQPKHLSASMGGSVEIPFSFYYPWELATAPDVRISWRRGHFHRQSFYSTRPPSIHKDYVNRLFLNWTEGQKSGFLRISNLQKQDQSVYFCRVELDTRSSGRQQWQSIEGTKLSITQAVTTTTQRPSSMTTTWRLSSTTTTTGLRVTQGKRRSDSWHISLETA
Method: The ability of conditioned media samples containing antibodies to inhibit the binding of PILRA Fc to human CD3+ T cells was assessed. Briefly, conditioned media samples containing antibodies were incubated with 1.25 ug/ml PILRA Fc for 30 min at 4° C. and then added to human T cells. After 30 minutes incubation at 4° C., cells were washed, and bound PILRA Fc was detected with anti-human IgG Alexa 647. Cells were analyzed by flow cytometry on FACS Canto II, and for all cell lines, the amount of PILRA Fc binding (MIFI) and the percentage of PILRA Fc binding in the presence of conditioned media relative to PILRA Fc binding alone was calculated. Several antibodies inhibited binding of PILRA Fc to human T cells, and a few antibodies enhanced PILRA-Fc binding to T cells. Antibodies that show enhancement in this assay may block cis inhibition to promote trans interactions or may allosterically activate to enhance trans interactions without blocking cis.

[7] = biological target: T6, human PILRA, c-term His-Avi tag (human, UniProt Q9UKJ1 20-197, limits assumed); experiment: SPR (Biacore), antibody captured, PILRA as analyte
T6 construct: not shown: C-terminal His-Avi tag
T6 sequence (Q9UKJ1 20-197 limits assumed): as above
Method: Experiments were performed to determine the kinetics of anti-PILRA antibody binding to human […]. The assay is depicted in FIG. 6. A rabbit anti-PILRA was used as a positive control, and H1 LALAPS was used as a negative control. Human PILRA (human PILRA, c-term His-Avi tag, 0.68 mg/mi) was used as the antigen. The running buffer was HBSTE/0.5% BSA, pH 7.4, and the regeneration solution was 10 mM glycine-HCl (pH 2.1). In the assay, antibodies were captured at 10 μg/ml by immobilized anti-huFc or anti-msFc on a Biacore CM5 chip, and human PILRA flowed at 33, 100, and 300 nM. The surface was regenerated after each analyte, and all curves were double-referenced with buffer injections.

[8] = biological target: T4, human PILRA, G78 variant, ectopically …; experiment: flow cytometry; blocking of NPDC1-hIgG1 binding to 293 cells expressing human PILRA G78

T1 sequence (Q2YFS3 32-302): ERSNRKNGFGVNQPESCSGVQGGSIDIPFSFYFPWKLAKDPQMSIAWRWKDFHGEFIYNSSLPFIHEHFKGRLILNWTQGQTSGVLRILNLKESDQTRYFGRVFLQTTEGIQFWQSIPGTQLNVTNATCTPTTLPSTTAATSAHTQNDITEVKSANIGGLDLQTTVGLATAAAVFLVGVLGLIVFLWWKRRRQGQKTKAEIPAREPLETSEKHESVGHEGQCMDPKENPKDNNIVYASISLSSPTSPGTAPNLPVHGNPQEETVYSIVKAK

B1: D1 (antibody, V domains shown)
VH: QVQLQQSGVELARPGASVKLSCKASGYNFTSYGINWVKQRTGQGLEWIGKSYPTSGNNYYNEKFKGKATVTADKSSSTAYMELRSLTSEDSAVYFCGVWYGSLFAHWGQGTLVTVTA
VL: DIVMTQSQKFMSTSVGDRVRVTCKASQNVGFNVAWYQQKPGQSPKVLIYSASYRYSGVPDRFTGSGSGTDFTLTITNVQSEDLAEYFCHQYNNFPFTFGSGTKLEIK
notes: second hybridoma campaign
B1: no binding [1]; no binding [2]; no binding [3]. The binding result [4] was “no binding”, the EC50 [5] was 0.3 µg/mL and the IC50 [6] was 1.6 µg/mL.

B2: D7 (antibody, V domains shown)
VH: QVQLKESGPGLVAPSQSLSITCTVSGFSLTSYAISWVRQPPGKGLEWLGIIWTGGDTNYNSGLKSRLSITKDNSKSQVFLKMNSLQTDDTSRYYCARNSLFYGITPYYFDYWGQGTTLTVSS
VL: DIVLTQSPATLSVTPGDSVSLSCRASQSIRNDLHWYQQKSHESPRLLIKYASQSISGIPSRFSGSGSGTDFTLTINVLETEDFGMYFCQQSNGWPLTFGAGTKLELK
notes: second hybridoma campaign
For B2, the binding result [1] was “no binding”, the EC50 [2] was 1 µg/mL and the EC50 [3] was 21.2 µg/mL. The binding result [4] was “no binding”, the EC50 [5] was 0.3 µg/mL and the IC50 [6] was 5.75 µg/mL.

B3: D3 (antibody, V domains shown)
VH: QVQLQQPGADLVKPGASVKVSCKTSGYSFTSYWIHWVKQRPGQGLEWIGRVHPSDSDTDYSQKFKGKATLTVDDSSSTVYMQLTNLTSEDSAVYYCAIEWGYLFDYWGQGTTLSVSS
VL: DIVLTQSPISLAVSLGQRATISCWASQSVSTSSYSYVHWYQQKPGQPPKLLIKYASNLDSGVPARFSGSGSGTDFTLNIHPVDEEDTATYYCHHNWEIPYTFGGGTKLEIK
notes: second hybridoma campaign
B3: no binding [1]; no binding [2]; no binding [3]. For the same binder, the binding result [4] was “no binding”, the EC50 [5] was 0.2 µg/mL and the IC50 [6] was 2.9 µg/mL.

B4: D4 (antibody, V domains shown)
VH: QVQLQQSGADLARPGASVKLSCKASGYTFTSYGIAWMKQRTGQGLEWIGEIYPRSGNPYYNDRFKGKATLTADRSSNTTYMELRSLTSEDSAVYFCARWVGGIIDYWGQGTSVTVSS
VL: DIVMTQSQKFMSTSIGDRVSVTCKASQNVGFNVAWYQQKPGQSPKPLIYSASYRYSGVPDRFTGSESGTEFTLIISNVQSEDLAEYFCQQYDSYPFTFGSGTNLEIK
notes: second hybridoma campaign
B4: no binding [1]; no binding [2]; no binding [3]. The binding result [4] was “no binding”, the EC50 [5] was 0.4 µg/mL and the IC50 [6] was 3.77 µg/mL.

B5: D6 (antibody, V domains shown)
VH: EVQLQQSGPELVKPGASVKMSCKASGYTFTDYYMDWVKQSHGESFEWIGRVNPYTGDSSYNQKFKGKATLTVDKSSNTAYLEFNSLTSEGSAVYYCARSDGYHYKYAMDYWGQGTSVTVSS
VL: DVVMTQTPLSLPVSLGDQASISCRSSQSLVHSTGNTYLHWYLQKPGQSPNLLIYKISNRFSGVPDRFSGSGSGTDFTLKISRVEAEDLGVYFCSQSTHVPYTFGGGTKLEIK
notes: second hybridoma campaign; same VH/VL as D8
For B5, the binding result [1] was “no binding”, the EC50 [2] was 0.05 µg/mL and the EC50 [3] was 0.47 µg/mL. For the same binder, the binding result [4] was “no binding”, the EC50 [5] was 0.12 µg/mL and the IC50 [6] was 3.13 µg/mL.

B6: D8 (antibody, V domains shown)
VH: EVQLQQSGPELVKPGASVKMSCKASGYTFTDYYMDWVKQSHGESFEWIGRVNPYTGDSSYNQKFKGKATLTVDKSSNTAYLEFNSLTSEGSAVYYCARSDGYHYKYAMDYWGQGTSVTVSS
VL: DVVMTQTPLSLPVSLGDQASISCRSSQSLVHSTGNTYLHWYLQKPGQSPNLLIYKISNRFSGVPDRFSGSGSGTDFTLKISRVEAEDLGVYFCSQSTHVPYTFGGGTKLEIK
notes: second hybridoma campaign; same VH/VL as D6
With B6 the binding result [1] was “no binding”, the EC50 [2] was 0.1 µg/mL and the EC50 [3] was 0.35 µg/mL. The binding result [4] was “no binding”, the EC50 [5] was 0.1 µg/mL and the IC50 [6] was 2 µg/mL.

B7: E21 (antibody, V domains shown)
VH: QVQLVQSGAEVKKPGSSVKVSCKASGYTFSNYDINWVRQAPGQGLEWMGGIIPIFGTANYALKFQGRVTITADESTSTAYMELSSLRSEDTAVYYCARGGPWLYFDYWGQGTLVTVSS
VL: DIQMTQSPSSLSASVGDRVTITCRASQSISTYLNWYQQKPGKAPKLLIYAASTLQSGVPSRFSGSGSGTDFTLTISSLQPEDFATYYCQQSYSSPLTFGQGTKLEIK
notes: phage campaign
With B7 the binding result [1] was “no binding”, the binding result [2] was “no binding” and the EC50 [3] was 3.4 µg/mL. The binding result [4] was “no binding”, the EC50 [5] was 0.7 µg/mL and the Kd [7] was 51.3 nM. The koff [7] was 0.0061 s⁻¹, the kon [7] was 120000 M⁻¹ s⁻¹ and the IC50 [8] was 0.6 µg/mL.

B8: A16 (antibody, human IgG1, kappa, L234A L235A, V domains shown)
VH: QVQLVQSGAEVKKPGSSVKVSCKASGYNFLNYDVNWVRQAPGQGLEWMGGIIPIFGTANYAQKFQGRVTITADESTSTAYMELSSLRSEDTAVYYCATGVGAGWFDPWGQGTLVTVSS
VL: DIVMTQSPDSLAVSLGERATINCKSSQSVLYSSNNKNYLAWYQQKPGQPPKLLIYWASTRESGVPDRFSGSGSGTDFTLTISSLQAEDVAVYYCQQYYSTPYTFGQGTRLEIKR
For B8, the binding result [1] was “no binding”, the EC50 [2] was 0.2 µg/mL and the binding result [3] was “no binding”. The binding result [4] was “no binding”, the EC50 [5] was 0.2 µg/mL and the Kd [7] was 47 nM. For the same binder, the koff [7] was 0.0042 s⁻¹, the kon [7] was 90000 M⁻¹ s⁻¹ and the IC50 [8] was 0.38 µg/mL.

B9: A9 (antibody, V domains shown)
VH: QVQLVQSGAEVKKPGSSVKVSCKASGYTFTDYAISWVRQAPGQGLEWMGGITPVFGTPSYAQKFQGRVTITADESTSTAYMELSSLRSEDTAVYYCARGWELRRDPFDYWGQGTLVTVSS
VL: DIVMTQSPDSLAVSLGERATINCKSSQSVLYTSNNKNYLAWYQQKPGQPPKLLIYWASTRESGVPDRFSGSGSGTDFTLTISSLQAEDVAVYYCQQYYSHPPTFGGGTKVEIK
notes: phage campaign
B9 was tested, and the binding result [1] was “no binding”, the EC50 [2] was 14.6 µg/mL and the binding result [3] was “no binding”. The binding result [4] was “no binding”, the EC50 [5] was 0.8 µg/mL and the Kd [7] was 150 nM. For the same binder, the koff [7] was 0.011 s⁻¹, the kon [7] was 70000 M⁻¹ s⁻¹ and the IC50 [8] was 0.6 µg/mL.

B10: A10 (antibody, V domains shown)
VH: QVQLVQSGAEVKKPGASVKVSCKASGYTFTDYYIHWVRQAPGQGLEWMGWMNPNSGNTGYAQKFQGRVTMTRDTSTSTVYMELSSLRSEDTAVYYCAREGSSGWYVDYWGQGTLVTVSS
VL: DIQMTQSPSSLSASVGDRVTITCQASQDISQFLNWYQQKPGKAPKLLIYDAYSLQSGVPSRFSGSGSGTDFTLTISSLQPEDFATYYCQQANSFPLTFGQGTKVEIK
notes: phage campaign
B10 was tested, and the binding result [1] was “no binding”, the EC50 [2] was 17.3 µg/mL and the binding result [3] was “no binding”. For the same binder, the binding result [4] was “no binding”, the EC50 [5] was 1.1 µg/mL and the Kd [7] was 42.9 nM. It also gave a koff [7] of 0.0054 s⁻¹, a kon [7] of 130000 M⁻¹ s⁻¹ and an IC50 [8] of 0.48 µg/mL.

B11: B1 (antibody, V domains shown)
VH: DVKLVESGGGLVKLGGSLKLSCAASGFTFSSYYMSWVRQTPEKRLEWVAAINSNGDRSYYPDTVKGRFTISRDNAKNTLYLQMSSLKSEDTAFYYCASHGNYYGSPWFAYWGQGTLVTVSA
VL: ETTVTQSPASLSVATGEKVTIRCKTSTDIDDDMNWYQQKPGEPPKLLISEGNTLRPGVPSRFSSSGYGTDFVFTIENTLSEDVADYYCLQNDHMPLTFGGGTKLEIK
notes: B-cell cloning campaign (mice)
With B11 the binding result [1] was “no binding”, the EC50 [2] was 2 µg/mL and the binding result [3] was “no binding”. For the same binder, the binding result [4] was “no binding”, the EC50 [5] was 0.96 µg/mL and the IC50 [6] was 2.2 µg/mL.

B12: E20 (antibody, V domains shown)
VH: QIQLVQSGPELKKPGETVKISCKASGYTFTTYGMSWVKQAPGKGLKWMGWINTYSGVPTYADDFKGRFAFSLETSASTAYLQINNLKNEDTATYFCARYDGYLDYWGQGTTLTVSS
VL: DIVLTQSPASLAVSLGQRATISCKASQSVDYDGDSYMNWYQQKPGQPPKLLIYAASNLESGIPARFSGSGSGTDFTLNIHPVEEEDAATYYCQQSNEDLTFGSGTKLEIK
notes: as for B11
B12: no binding [1]; no binding [2]; no binding [3]. The binding result [4] was “no binding”, the EC50 [5] was 33.5 µg/mL and the IC50 [6] was 5.1 µg/mL.
